Measurements reported in the supplement of paper PMC7877785.
± gives the uncertainty stated by the source.

Assay: self-splicing fitness, log relative to wild type (ln ratio); higher = more splicing; Tetrahymena group I intron in knt gene, E. coli kanamycin selection, DiMSum; sequences stand for … in CUCUCU…GGAGGGAAAAGUUAUCAGGCAUGCACCUGGUAGCUAGUCUUUAAACCAAUAGAUUGCAUCGGUUUAAAAGGCAAGACCGUCAAAUUGCGGGAAAGGGGUCAACAGCCGUUCAGUACCAAGUCUCAGGGGAAACUUUGAGAUGGCCUUGCAAAGGGUAUGGUAAUAAGCUGACGGACAUGGUCCUAACCACGCAGCCAAGUCCUAAGUCAACAGAUCUUCUGUUGAUAUGGAUGCAGUUCACAGACUAAAUGUCGGUCGGGGAAGAUGUAUUCUUCUCAUAAGAUAUAGUCGGACCUCUCCUUAAUGGGAGCUAGCGGAUGAAGUGAUGCAACACUGGAGCCGCUGGGAACUAAUUUGUAUGCGAAAGUAUAUUGAUUAGUUUUGGAGUACUCGUGGUCG
Method in brief: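 Colonies from six replicate transformations of E. coli BL21(DE3) were pooled and amplicon-sequenced on an Illumina HiSeq 2500. The library placed an intron with all eight P1ex-region nucleotides randomised inside the knt kanamycin-resistance gene on pET-22b(+), and cells grew overnight at 37°C or 30°C on LB agar with or without 25 μg/mL kanamycin (plus 100 μg/mL carbenicillin, 50 μM IPTG, 0.2% rhamnose). Fitness is the DiMSum error-weighted combination of wild-type-normalised replicate fold changes, kanamycin versus none.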

| Sequence | self-splicing fitness (ln) (30 °C) | self-splicing fitness (ln) (37 °C) |
| --- | --- | --- |
| CACUAGCAAUAUUACGCAAU | -1.48 ± 0.15 | -3.09 ± 0.35 |
| CACUAGCAAUAUUACGCAUA | -2.75 ± 0.2 | -2.83 ± 0.24 |
| CACUAGCAAUAUUACGCAUC | -4.23 ± 0.43 | -3.53 ± 0.37 |
| CACUAGCAAUAUUACGCCCC | -0.891 ± 0.38 | -0.252 ± 0.47 |
| CACUAGCAAUAUUACGCCGC |  | -2.58 ± 0.5 |
| CACUAGCAAUAUUACGCCUG | -0.103 ± 0.15 | -0.344 ± 0.14 |
| CACUAGCAAUAUUACGCUAG | -3.17 ± 0.26 | -2.41 ± 0.27 |
| CACUAGCAAUAUUACGCUAU | -3.92 ± 0.3 | -2.38 ± 0.23 |
| CACUAGCAAUAUUACGCUGA | -2.58 ± 0.23 | -1.51 ± 0.19 |
| CACUAGCAAUAUUACGCUUC | -3.74 ± 0.3 | -3.2 ± 0.4 |
| CACUAGCAAUAUUACGCUUU | -4.28 ± 0.42 | -1.57 ± 0.2 |
| CACUAGCAAUAUUACGGAGA |  | -2.39 ± 0.22 |
| CACUAGCAAUAUUACGGAUC | -1.79 ± 0.19 |  |
| CACUAGCAAUAUUACGGCAG | -0.257 ± 0.049 | 0.189 ± 0.066 |
| CACUAGCAAUAUUACGGGCA | -1.91 ± 0.21 | -1.71 ± 0.21 |
| CACUAGCAAUAUUACGGGCU | -4.24 ± 0.39 | -3.52 ± 0.33 |
| CACUAGCAAUAUUACGGGUU | -2.05 ± 0.076 | -1.28 ± 0.095 |
| CACUAGCAAUAUUACGGUAG | -1.99 ± 0.1 | -0.969 ± 0.094 |
| CACUAGCAAUAUUACGGUGG | -2.3 ± 0.067 | -0.616 ± 0.075 |
| CACUAGCAAUAUUACGGUUG | -1.98 ± 0.087 | -1.38 ± 0.098 |
| CACUAGCAAUAUUACGUAAU | -3.08 ± 0.22 | -2.54 ± 0.2 |
| CACUAGCAAUAUUACGUAUG | -1.82 ± 0.061 | -0.818 ± 0.068 |
| CACUAGCAAUAUUACGUCCC | -2.5 ± 0.34 | -2.38 ± 0.33 |
| CACUAGCAAUAUUACGUGGA | -3.76 ± 0.32 | -2.44 ± 0.14 |
| CACUAGCAAUAUUACGUGGG | -3.99 ± 0.2 | -3.1 ± 0.22 |

| Sequence | self-splicing fitness (ln) (30 °C) | self-splicing fitness (ln) (37 °C) |
| --- | --- | --- |
| CACUAGCAAUAUUACGUGUA | -2 ± 0.11 | -1.47 ± 0.12 |
| CACUAGCAAUAUUACGUGUU | -4.69 ± 0.23 | -2.88 ± 0.16 |
| CACUAGCAAUAUUACGUUGG | -2.27 ± 0.11 | -2.03 ± 0.16 |
| CAGAAGCAAUAUUACGACAC |  | -2.1 ± 0.29 |
| CAGAAGCAAUAUUACGACUC | -0.803 ± 0.069 | -0.342 ± 0.095 |
| CAGAAGCAAUAUUACGAUGG | -0.534 ± 0.064 | -0.254 ± 0.078 |
| CAGAAGCAAUAUUACGCAGC | -3.43 ± 0.23 | -2.35 ± 0.24 |
| CAGAAGCAAUAUUACGCCGU | -3.06 ± 0.21 | -1.94 ± 0.23 |
| CAGAAGCAAUAUUACGCCUU | -1.78 ± 0.087 | -0.677 ± 0.11 |
| CAGAAGCAAUAUUACGCGCC | -2.83 ± 0.25 | -1.34 ± 0.18 |
| CAGAAGCAAUAUUACGCGGA | -3.15 ± 0.15 | -3.11 ± 0.17 |
| CAGAAGCAAUAUUACGGAUA | -2.48 ± 0.13 | -1.43 ± 0.11 |
| CAGAAGCAAUAUUACGGCCA | -1.5 ± 0.26 | -1.83 ± 0.21 |
| CAGAAGCAAUAUUACGGCUG | -2.29 ± 0.19 | -2.49 ± 0.23 |
| CAGAAGCAAUAUUACGGGCU | -3.96 ± 0.24 | -1.83 ± 0.16 |
| CAGAAGCAAUAUUACGGUAC | -4.59 ± 0.28 | -1.72 ± 0.21 |
| CAGAAGCAAUAUUACGUAAU | -3.4 ± 0.15 | -2.85 ± 0.21 |
| CAGAAGCAAUAUUACGUCCA | -1.68 ± 0.14 | -1.44 ± 0.21 |
| CAGAAGCAAUAUUACGUCUC | -1.79 ± 0.07 | -0.536 ± 0.084 |
| CAGAAGCAAUAUUACGUGCG | -0.578 ± 0.07 | 0.0457 ± 0.099 |
| CAGAAGCAAUAUUACGUUUU | -3.33 ± 0.14 | -3.58 ± 0.19 |
| CAGCAGCAAUAUUACGAAUA | -2.35 ± 0.13 | -1.9 ± 0.12 |
| CAGCAGCAAUAUUACGAAUG | -1.69 ± 0.061 | 0.012 ± 0.083 |
| CAGCAGCAAUAUUACGAGAA |  | -3.16 ± 0.37 |
| CAGCAGCAAUAUUACGAGGG | -3.15 ± 0.097 | -1.12 ± 0.093 |

| Sequence | self-splicing fitness (ln) (30 °C) | self-splicing fitness (ln) (37 °C) |
| --- | --- | --- |
| CAGCAGCAAUAUUACGAUUA | -1.77 ± 0.1 | -1 ± 0.11 |
| CAGCAGCAAUAUUACGCCAC | -4.15 ± 0.26 | -3.31 ± 0.29 |
| CAGCAGCAAUAUUACGCCCG | 0.0522 ± 0.12 | 0.33 ± 0.12 |
| CAGCAGCAAUAUUACGCGAC | -2.71 ± 0.39 | -0.925 ± 0.25 |
| CAGCAGCAAUAUUACGGAGU | -3.15 ± 0.12 | -2.49 ± 0.15 |
| CAGCAGCAAUAUUACGGGCC | -3.41 ± 0.3 | -2.78 ± 0.24 |
| CAGGAGCAAUAUUACGACCG | 0.66 ± 0.2 | 0.00703 ± 0.17 |
| CAGGAGCAAUAUUACGACUC | -2.74 ± 0.11 | -2.14 ± 0.15 |
| CAGGAGCAAUAUUACGAGCC | -2.71 ± 0.29 | -2.44 ± 0.49 |
| CAGGAGCAAUAUUACGAGCG | -1.04 ± 0.13 | 0.24 ± 0.11 |
| CAGGAGCAAUAUUACGCACU | -2.54 ± 0.5 | -1.2 ± 0.34 |
| CAGGAGCAAUAUUACGCAGA | -2.76 ± 0.33 | -2.29 ± 0.2 |
| CAGGAGCAAUAUUACGCCAG | -2.75 ± 0.32 |  |
| CAGGAGCAAUAUUACGCGCC |  | -2.5 ± 0.26 |
| CAGGAGCAAUAUUACGCGGA | -2.78 ± 0.25 |  |
| CAGGAGCAAUAUUACGCGGU |  | -3.29 ± 0.47 |
| CAGGAGCAAUAUUACGCUCU | -3.36 ± 0.26 | -2.41 ± 0.26 |
| CAGGAGCAAUAUUACGCUGC | -4.3 ± 0.36 | -2.82 ± 0.36 |
| CAGGAGCAAUAUUACGGCGG | -0.542 ± 0.074 | -0.0448 ± 0.091 |
| CAGGAGCAAUAUUACGGGAC | -2.88 ± 0.25 | -3.24 ± 0.29 |
| CAGGAGCAAUAUUACGGGUA | -4.12 ± 0.42 | -3.31 ± 0.35 |
| CAGGAGCAAUAUUACGGUGU | -3.1 ± 0.15 | -2.66 ± 0.2 |
| CAGGAGCAAUAUUACGGUUU | -3.2 ± 0.41 |  |
| CAGGAGCAAUAUUACGUAAA | -1.92 ± 0.25 | -1.24 ± 0.31 |
| CAGGAGCAAUAUUACGUGCU | -2.91 ± 0.13 | -2.23 ± 0.14 |

| Sequence | self-splicing fitness (ln) (30 °C) | self-splicing fitness (ln) (37 °C) |
| --- | --- | --- |
| CAGGAGCAAUAUUACGUUUU | -3.95 ± 0.35 | -2.3 ± 0.23 |
| CAGUAGCAAUAUUACGACAA | -1.98 ± 0.19 | -1.62 ± 0.15 |
| CAGUAGCAAUAUUACGACCU | -0.458 ± 0.15 | -0.391 ± 0.2 |
| CAGUAGCAAUAUUACGCGUG | -2.65 ± 0.18 | -1.86 ± 0.14 |
| CAGUAGCAAUAUUACGCUAG | -2.14 ± 0.1 | -1.34 ± 0.1 |
| CAGUAGCAAUAUUACGCUGU | -2.72 ± 0.17 | -2.99 ± 0.28 |
| CAGUAGCAAUAUUACGGAGA | -2.32 ± 0.24 |  |
| CAGUAGCAAUAUUACGGAUC | -3.64 ± 0.43 | -1.48 ± 0.27 |
| CAGUAGCAAUAUUACGGAUU | -2.84 ± 0.17 | -3.21 ± 0.27 |
| CAGUAGCAAUAUUACGGGGG | -3.48 ± 0.33 | -2.02 ± 0.42 |
| CAGUAGCAAUAUUACGGGUG | -0.853 ± 0.06 | -0.398 ± 0.078 |
| CAGUAGCAAUAUUACGUAAG | 0.131 ± 0.069 | -0.159 ± 0.086 |
| CAGUAGCAAUAUUACGUACU | -1.78 ± 0.12 | -1.3 ± 0.1 |
| CAGUAGCAAUAUUACGUAGU | -2.5 ± 0.13 | -2.54 ± 0.18 |
| CAGUAGCAAUAUUACGUAUU | -3.48 ± 0.2 | -1.81 ± 0.2 |
| CAGUAGCAAUAUUACGUCAC | -2 ± 0.25 |  |
| CAGUAGCAAUAUUACGUCGG | -0.645 ± 0.078 | -0.0434 ± 0.1 |
| CAGUAGCAAUAUUACGUUGU | -4.7 ± 0.28 | -3.14 ± 0.24 |
| CAUAAGCAAUAUUACGACGC | -2.7 ± 0.25 | -0.823 ± 0.19 |
| CAUAAGCAAUAUUACGAGAC | -3.9 ± 0.37 |  |
| CAUAAGCAAUAUUACGAGAG | -2.88 ± 0.18 | -1.32 ± 0.14 |
| CAUAAGCAAUAUUACGAGCA | -3.98 ± 0.37 | -1.77 ± 0.2 |
| CAUAAGCAAUAUUACGAGGU | -2.81 ± 0.16 | -2.6 ± 0.18 |
| CAUAAGCAAUAUUACGAGUA | -2.34 ± 0.15 | -1.45 ± 0.15 |
